# Laboratory results as given in publication PMC6288486.
# Tested on: His9
# Assay: UV-vis
# Conditions: 25 °C; none; pH adjusted with NaOH (1, 0.1, 0.01 M) and TFA (0.1 and 1% v/v in water); Mn(III) resting state, 15 µM. Transition from bis-aquo (species 1) to His-aquo (species 2) axial coordination. Helical fold stabilised by 40% TFE.
substance,measurement,value
Mn-Mimochrome VI*a (Mn-MC6*a) (synthetic construct),pKa,4.0
